From US11965039B2, “Compstatin analogues and their medical uses” (priority 2018, dated 2024) come the findings set out here.

Positions of bridges follow the written chain, without caps; N, C: chain ends. Non-standard residues stand in square brackets, D forms with d. Trp(1-Me) = Cn1cc(C[C@H](N)C(=O)O)c2ccccc21; 1Nal = N[C@@H](Cc1cccc2ccccc12)C(=O)O; 2Nal = N[C@@H](Cc1ccc2ccccc2c1)C(=O)O Some results are limits rather than exact numbers.

B1: Compound 56 (peptide)
peptide: Ac-EGSAFCI[1Nal]QDWGEHRCTE-NH2
modifications: disulfide 6-16
SMILES: CC[C@H](C)[C@@H]1NC(=O)[C@@H](NC(=O)[C@H](Cc2ccccc2)NC(=O)[C@H](C)NC(=O)[C@H](CO)NC(=O)CNC(=O)[C@H](CCC(=O)O)NC(C)=O)CSSC[C@@H](C(=O)N[C@H](C(=O)N[C@@H](CCC(=O)O)C(N)=O)[C@@H](C)O)NC(=O)[C@H](CCCNC(=N)N)NC(=O)[C@H](Cc2c[nH]cn2)NC(=O)[C@H](CCC(=O)O)NC(=O)CNC(=O)[C@H](Cc2c[nH]c3ccccc23)NC(=O)[C@H](CC(=O)O)NC(=O)[C@H](CCC(N)=O)NC(=O)[C@H](Cc2cccc3ccccc23)NC1=O
B2: Compound 55 (peptide)
peptide: Ac-EGSAICIWQDWGEHRCTE-NH2
modifications: disulfide 6-16
SMILES: CC[C@H](C)[C@H](NC(=O)[C@H](C)NC(=O)[C@H](CO)NC(=O)CNC(=O)[C@H](CCC(=O)O)NC(C)=O)C(=O)N[C@H]1CSSC[C@@H](C(=O)N[C@H](C(=O)N[C@@H](CCC(=O)O)C(N)=O)[C@@H](C)O)NC(=O)[C@H](CCCNC(=N)N)NC(=O)[C@H](Cc2c[nH]cn2)NC(=O)[C@H](CCC(=O)O)NC(=O)CNC(=O)[C@H](Cc2c[nH]c3ccccc23)NC(=O)[C@H](CC(=O)O)NC(=O)[C@H](CCC(N)=O)NC(=O)[C@H](Cc2c[nH]c3ccccc23)NC(=O)[C@H]([C@@H](C)CC)NC1=O
B3: Compound 62 (peptide)
peptide: Ac-YCI[Trp(1-Me)]QDWGEHRCTGAES-NH2
modifications: disulfide 2-12
SMILES: CC[C@H](C)[C@@H]1NC(=O)[C@@H](NC(=O)[C@H](Cc2ccc(O)cc2)NC(C)=O)CSSC[C@@H](C(=O)N[C@H](C(=O)NCC(=O)N[C@@H](C)C(=O)N[C@@H](CCC(=O)O)C(=O)N[C@@H](CO)C(N)=O)[C@@H](C)O)NC(=O)[C@H](CCCNC(=N)N)NC(=O)[C@H](Cc2c[nH]cn2)NC(=O)[C@H](CCC(=O)O)NC(=O)CNC(=O)[C@H](Cc2c[nH]c3ccccc23)NC(=O)[C@H](CC(=O)O)NC(=O)[C@H](CCC(N)=O)NC(=O)[C@H](Cc2cn(C)c3ccccc23)NC1=O
B4: Compound 68 (peptide)
peptide: Ac-YCI[Trp(1-Me)]QDWGEHRCTEAGS-NH2
modifications: disulfide 2-12
SMILES: CC[C@H](C)[C@@H]1NC(=O)[C@@H](NC(=O)[C@H](Cc2ccc(O)cc2)NC(C)=O)CSSC[C@@H](C(=O)N[C@H](C(=O)N[C@@H](CCC(=O)O)C(=O)N[C@@H](C)C(=O)NCC(=O)N[C@@H](CO)C(N)=O)[C@@H](C)O)NC(=O)[C@H](CCCNC(=N)N)NC(=O)[C@H](Cc2c[nH]cn2)NC(=O)[C@H](CCC(=O)O)NC(=O)CNC(=O)[C@H](Cc2c[nH]c3ccccc23)NC(=O)[C@H](CC(=O)O)NC(=O)[C@H](CCC(N)=O)NC(=O)[C@H](Cc2cn(C)c3ccccc23)NC1=O
B5: Compound 69 (peptide)
peptide: Ac-YCI[Trp(1-Me)]QDWGEHRCTESGA-NH2
modifications: disulfide 2-12
SMILES: CC[C@H](C)[C@@H]1NC(=O)[C@@H](NC(=O)[C@H](Cc2ccc(O)cc2)NC(C)=O)CSSC[C@@H](C(=O)N[C@H](C(=O)N[C@@H](CCC(=O)O)C(=O)N[C@@H](CO)C(=O)NCC(=O)N[C@@H](C)C(N)=O)[C@@H](C)O)NC(=O)[C@H](CCCNC(=N)N)NC(=O)[C@H](Cc2c[nH]cn2)NC(=O)[C@H](CCC(=O)O)NC(=O)CNC(=O)[C@H](Cc2c[nH]c3ccccc23)NC(=O)[C@H](CC(=O)O)NC(=O)[C@H](CCC(N)=O)NC(=O)[C@H](Cc2cn(C)c3ccccc23)NC1=O
B6: Compound 60 (peptide)
peptide: Ac-EGSAFCI[2Nal]QDWGEHRCTE-NH2
modifications: disulfide 6-16
SMILES: CC[C@H](C)[C@@H]1NC(=O)[C@@H](NC(=O)[C@H](Cc2ccccc2)NC(=O)[C@H](C)NC(=O)[C@H](CO)NC(=O)CNC(=O)[C@H](CCC(=O)O)NC(C)=O)CSSC[C@@H](C(=O)N[C@H](C(=O)N[C@@H](CCC(=O)O)C(N)=O)[C@@H](C)O)NC(=O)[C@H](CCCNC(=N)N)NC(=O)[C@H](Cc2c[nH]cn2)NC(=O)[C@H](CCC(=O)O)NC(=O)CNC(=O)[C@H](Cc2c[nH]c3ccccc23)NC(=O)[C@H](CC(=O)O)NC(=O)[C@H](CCC(N)=O)NC(=O)[C@H](Cc2ccc3ccccc3c2)NC1=O
B7: Compound 57 (peptide)
peptide: Ac-EGSAFCI[Trp(1-Me)]QDWGEHRCTE-NH2
modifications: disulfide 6-16
SMILES: CC[C@H](C)[C@@H]1NC(=O)[C@@H](NC(=O)[C@H](Cc2ccccc2)NC(=O)[C@H](C)NC(=O)[C@H](CO)NC(=O)CNC(=O)[C@H](CCC(=O)O)NC(C)=O)CSSC[C@@H](C(=O)N[C@H](C(=O)N[C@@H](CCC(=O)O)C(N)=O)[C@@H](C)O)NC(=O)[C@H](CCCNC(=N)N)NC(=O)[C@H](Cc2c[nH]cn2)NC(=O)[C@H](CCC(=O)O)NC(=O)CNC(=O)[C@H](Cc2c[nH]c3ccccc23)NC(=O)[C@H](CC(=O)O)NC(=O)[C@H](CCC(N)=O)NC(=O)[C@H](Cc2cn(C)c3ccccc23)NC1=O
B8: Compound 64 (peptide)
peptide: Ac-FCI[2Nal]QDWGEHRCTGAES-NH2
modifications: disulfide 2-12
SMILES: CC[C@H](C)[C@@H]1NC(=O)[C@@H](NC(=O)[C@H](Cc2ccccc2)NC(C)=O)CSSC[C@@H](C(=O)N[C@H](C(=O)NCC(=O)N[C@@H](C)C(=O)N[C@@H](CCC(=O)O)C(=O)N[C@@H](CO)C(N)=O)[C@@H](C)O)NC(=O)[C@H](CCCNC(=N)N)NC(=O)[C@H](Cc2c[nH]cn2)NC(=O)[C@H](CCC(=O)O)NC(=O)CNC(=O)[C@H](Cc2c[nH]c3ccccc23)NC(=O)[C@H](CC(=O)O)NC(=O)[C@H](CCC(N)=O)NC(=O)[C@H](Cc2ccc3ccccc3c2)NC1=O
B9: Compound 66 (peptide)
peptide: Ac-YCIWQDWGEHRCTGAES-NH2
modifications: disulfide 2-12
SMILES: CC[C@H](C)[C@@H]1NC(=O)[C@@H](NC(=O)[C@H](Cc2ccc(O)cc2)NC(C)=O)CSSC[C@@H](C(=O)N[C@H](C(=O)NCC(=O)N[C@@H](C)C(=O)N[C@@H](CCC(=O)O)C(=O)N[C@@H](CO)C(N)=O)[C@@H](C)O)NC(=O)[C@H](CCCNC(=N)N)NC(=O)[C@H](Cc2c[nH]cn2)NC(=O)[C@H](CCC(=O)O)NC(=O)CNC(=O)[C@H](Cc2c[nH]c3ccccc23)NC(=O)[C@H](CC(=O)O)NC(=O)[C@H](CCC(N)=O)NC(=O)[C@H](Cc2c[nH]c3ccccc23)NC1=O
B10: Compound 65 (peptide)
peptide: Ac-YCI[2Nal]QDWGEHRCTGAES-NH2
modifications: disulfide 2-12
SMILES: CC[C@H](C)[C@@H]1NC(=O)[C@@H](NC(=O)[C@H](Cc2ccc(O)cc2)NC(C)=O)CSSC[C@@H](C(=O)N[C@H](C(=O)NCC(=O)N[C@@H](C)C(=O)N[C@@H](CCC(=O)O)C(=O)N[C@@H](CO)C(N)=O)[C@@H](C)O)NC(=O)[C@H](CCCNC(=N)N)NC(=O)[C@H](Cc2c[nH]cn2)NC(=O)[C@H](CCC(=O)O)NC(=O)CNC(=O)[C@H](Cc2c[nH]c3ccccc23)NC(=O)[C@H](CC(=O)O)NC(=O)[C@H](CCC(N)=O)NC(=O)[C@H](Cc2ccc3ccccc3c2)NC1=O
B11: Compound 59 (peptide)
peptide: Ac-EGSAYCI[Trp(1-Me)]QDWGEHRCTE-NH2
modifications: disulfide 6-16
SMILES: CC[C@H](C)[C@@H]1NC(=O)[C@@H](NC(=O)[C@H](Cc2ccc(O)cc2)NC(=O)[C@H](C)NC(=O)[C@H](CO)NC(=O)CNC(=O)[C@H](CCC(=O)O)NC(C)=O)CSSC[C@@H](C(=O)N[C@H](C(=O)N[C@@H](CCC(=O)O)C(N)=O)[C@@H](C)O)NC(=O)[C@H](CCCNC(=N)N)NC(=O)[C@H](Cc2c[nH]cn2)NC(=O)[C@H](CCC(=O)O)NC(=O)CNC(=O)[C@H](Cc2c[nH]c3ccccc23)NC(=O)[C@H](CC(=O)O)NC(=O)[C@H](CCC(N)=O)NC(=O)[C@H](Cc2cn(C)c3ccccc23)NC1=O
B12: Compound 52 (peptide)
peptide: Ac-ICI[2Nal]QDWGEHRCTGAES-NH2
modifications: disulfide 2-12
SMILES: CC[C@H](C)[C@H](NC(C)=O)C(=O)N[C@H]1CSSC[C@@H](C(=O)N[C@H](C(=O)NCC(=O)N[C@@H](C)C(=O)N[C@@H](CCC(=O)O)C(=O)N[C@@H](CO)C(N)=O)[C@@H](C)O)NC(=O)[C@H](CCCNC(=N)N)NC(=O)[C@H](Cc2c[nH]cn2)NC(=O)[C@H](CCC(=O)O)NC(=O)CNC(=O)[C@H](Cc2c[nH]c3ccccc23)NC(=O)[C@H](CC(=O)O)NC(=O)[C@H](CCC(N)=O)NC(=O)[C@H](Cc2ccc3ccccc3c2)NC(=O)[C@H]([C@@H](C)CC)NC1=O
B13: Compound 58 (peptide)
peptide: Ac-EGSAFCI[Trp(1-Me)]QDWGEHRCEGE-NH2
modifications: disulfide 6-16
SMILES: CC[C@H](C)[C@@H]1NC(=O)[C@@H](NC(=O)[C@H](Cc2ccccc2)NC(=O)[C@H](C)NC(=O)[C@H](CO)NC(=O)CNC(=O)[C@H](CCC(=O)O)NC(C)=O)CSSC[C@@H](C(=O)N[C@@H](CCC(=O)O)C(=O)NCC(=O)N[C@@H](CCC(=O)O)C(N)=O)NC(=O)[C@H](CCCNC(=N)N)NC(=O)[C@H](Cc2c[nH]cn2)NC(=O)[C@H](CCC(=O)O)NC(=O)CNC(=O)[C@H](Cc2c[nH]c3ccccc23)NC(=O)[C@H](CC(=O)O)NC(=O)[C@H](CCC(N)=O)NC(=O)[C@H](Cc2cn(C)c3ccccc23)NC1=O

Human C3 (Complement tech cat #A113c), sequence (P01024 23-1663 limits assumed): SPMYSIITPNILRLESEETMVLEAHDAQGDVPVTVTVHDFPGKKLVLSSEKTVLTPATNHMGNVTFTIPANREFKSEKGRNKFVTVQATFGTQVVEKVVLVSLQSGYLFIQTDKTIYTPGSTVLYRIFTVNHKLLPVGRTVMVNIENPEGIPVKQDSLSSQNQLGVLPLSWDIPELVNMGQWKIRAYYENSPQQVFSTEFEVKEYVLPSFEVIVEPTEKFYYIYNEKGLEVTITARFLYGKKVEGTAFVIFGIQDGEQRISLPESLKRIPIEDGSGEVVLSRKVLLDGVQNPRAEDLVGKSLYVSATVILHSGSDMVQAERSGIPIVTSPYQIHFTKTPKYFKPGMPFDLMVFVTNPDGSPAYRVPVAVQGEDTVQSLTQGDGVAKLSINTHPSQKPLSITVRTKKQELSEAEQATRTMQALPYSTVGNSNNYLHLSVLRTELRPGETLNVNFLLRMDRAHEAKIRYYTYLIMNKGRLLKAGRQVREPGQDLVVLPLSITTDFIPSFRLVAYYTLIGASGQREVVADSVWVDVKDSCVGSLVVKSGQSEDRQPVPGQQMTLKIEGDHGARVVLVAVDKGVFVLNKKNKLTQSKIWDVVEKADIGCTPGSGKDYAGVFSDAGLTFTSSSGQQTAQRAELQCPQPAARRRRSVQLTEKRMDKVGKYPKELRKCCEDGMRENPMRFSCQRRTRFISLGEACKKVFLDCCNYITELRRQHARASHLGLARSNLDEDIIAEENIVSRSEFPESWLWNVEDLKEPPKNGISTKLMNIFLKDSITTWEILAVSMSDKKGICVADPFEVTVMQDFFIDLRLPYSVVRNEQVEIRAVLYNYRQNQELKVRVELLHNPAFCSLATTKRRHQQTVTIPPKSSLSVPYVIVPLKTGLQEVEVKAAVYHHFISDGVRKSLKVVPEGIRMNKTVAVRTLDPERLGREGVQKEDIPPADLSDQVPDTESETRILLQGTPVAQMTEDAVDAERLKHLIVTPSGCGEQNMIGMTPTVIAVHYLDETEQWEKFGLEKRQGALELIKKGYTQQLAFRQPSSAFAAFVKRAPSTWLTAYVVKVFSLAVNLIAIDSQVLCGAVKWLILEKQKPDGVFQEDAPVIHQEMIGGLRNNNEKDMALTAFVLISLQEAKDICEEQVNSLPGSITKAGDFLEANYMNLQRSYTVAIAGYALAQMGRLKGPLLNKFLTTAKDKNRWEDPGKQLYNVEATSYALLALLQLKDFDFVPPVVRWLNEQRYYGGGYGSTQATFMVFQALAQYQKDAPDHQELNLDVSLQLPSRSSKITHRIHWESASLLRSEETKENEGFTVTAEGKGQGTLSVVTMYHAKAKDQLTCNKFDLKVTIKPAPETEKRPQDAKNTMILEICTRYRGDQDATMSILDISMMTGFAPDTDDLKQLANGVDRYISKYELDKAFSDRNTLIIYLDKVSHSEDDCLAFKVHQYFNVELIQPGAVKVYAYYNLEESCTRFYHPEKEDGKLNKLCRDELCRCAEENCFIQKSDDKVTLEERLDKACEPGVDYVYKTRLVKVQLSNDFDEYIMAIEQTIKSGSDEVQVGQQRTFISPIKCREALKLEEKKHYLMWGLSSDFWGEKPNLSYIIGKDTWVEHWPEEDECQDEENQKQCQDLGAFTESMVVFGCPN

The test has as its target Human C3 (Complement tech cat #A113c) (human, UniProt P01024 23-1663). The experiment in a line: cell-based or functional assay.
Regarding B1, the “inhibition of hemolysis IC50” value is under 100 nM.
To B2 belongs under 250 nM; to B3, under 100 nM.
As for B4, the figure is under 100 nM; as for B5, under 100 nM.
To B6 belongs under 100 nM; to B7, under 100 nM.
Turning to B8, the “inhibition of hemolysis IC50” value was under 100 nM.
As for B9, the figure is under 100 nM; as for B10, under 100 nM.
On to B11, for which the “inhibition of hemolysis IC50” value was under 100 nM.
To B12 belongs under 100 nM; to B13, under 100 nM.
